Drawing on patent publication US20180155451A1 (published 2018), this text covers Ho/Con_2aH and He/Con_2aH for eight molecules.

B1: GpH7-B3 variant T335_10E/GpL16-k0 (antibody, human IgG1, kappa)
heavy: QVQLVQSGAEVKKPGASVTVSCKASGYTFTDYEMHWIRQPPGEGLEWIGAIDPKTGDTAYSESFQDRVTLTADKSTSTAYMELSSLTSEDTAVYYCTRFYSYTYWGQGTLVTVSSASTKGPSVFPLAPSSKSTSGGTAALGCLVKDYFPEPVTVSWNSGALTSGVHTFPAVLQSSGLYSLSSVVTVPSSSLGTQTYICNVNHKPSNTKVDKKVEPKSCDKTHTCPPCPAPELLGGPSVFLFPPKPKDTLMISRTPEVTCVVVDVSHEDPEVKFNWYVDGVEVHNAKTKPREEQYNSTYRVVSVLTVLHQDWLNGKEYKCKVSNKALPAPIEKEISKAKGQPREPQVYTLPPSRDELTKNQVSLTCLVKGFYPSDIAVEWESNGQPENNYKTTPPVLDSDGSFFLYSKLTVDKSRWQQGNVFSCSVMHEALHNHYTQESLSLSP
light: DIVMTQSPLSLPVTPGEPASISCQASESLVHSNRNTYLHWYLQKPGQSPQLLIYKVSNRFSGVPDRFSGSGSGTDFTLKISRVEAEDVGVYYCSQNTHVPPTFGQGTKVEIERTVAAPSVFIFPPSDEQLKSGTASVVCLLNNFYPREAKVQWKVDNALQSGNSQESVTEQDSKDSTYSLSSTLTLSKADYEKHKVYACEVTHQGLSSPVTKSFNRGEC
notes: also called Ho Ab T335_10E
B2: GpH7-A5/GpH7-B3 variant I332_02A/GpL16-k0 (antibody, human IgG1, kappa)
heavy 1: not shown
heavy 2: not shown
light: DIVMTQSPLSLPVTPGEPASISCQASESLVHSNRNTYLHWYLQKPGQSPQLLIYKVSNRFSGVPDRFSGSGSGTDFTLKISRVEAEDVGVYYCSQNTHVPPTFGQGTKVEIERTVAAPSVFIFPPSDEQLKSGTASVVCLLNNFYPREAKVQWKVDNALQSGNSQESVTEQDSKDSTYSLSSTLTLSKADYEKHKVYACEVTHQGLSSPVTKSFNRGEC
notes: also called He Ab I332_02A
B3: GpH7-B3 variant T335_13S/GpL16-k0 (antibody, human IgG1, kappa)
heavy: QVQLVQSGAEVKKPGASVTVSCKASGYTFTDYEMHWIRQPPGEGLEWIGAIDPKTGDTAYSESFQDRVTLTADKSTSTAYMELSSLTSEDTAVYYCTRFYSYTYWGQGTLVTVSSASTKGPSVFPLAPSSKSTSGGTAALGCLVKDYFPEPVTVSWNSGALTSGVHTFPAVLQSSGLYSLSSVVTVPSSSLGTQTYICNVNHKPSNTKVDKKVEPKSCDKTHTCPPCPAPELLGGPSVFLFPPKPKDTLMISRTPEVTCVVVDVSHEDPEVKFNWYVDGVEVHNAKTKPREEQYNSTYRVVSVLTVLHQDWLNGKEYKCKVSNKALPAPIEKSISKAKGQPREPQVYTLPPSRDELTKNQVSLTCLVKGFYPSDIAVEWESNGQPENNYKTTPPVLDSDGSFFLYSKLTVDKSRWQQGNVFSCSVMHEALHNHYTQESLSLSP
light: DIVMTQSPLSLPVTPGEPASISCQASESLVHSNRNTYLHWYLQKPGQSPQLLIYKVSNRFSGVPDRFSGSGSGTDFTLKISRVEAEDVGVYYCSQNTHVPPTFGQGTKVEIERTVAAPSVFIFPPSDEQLKSGTASVVCLLNNFYPREAKVQWKVDNALQSGNSQESVTEQDSKDSTYSLSSTLTLSKADYEKHKVYACEVTHQGLSSPVTKSFNRGEC
notes: also called Ho Ab T335_13S
B4: GpH7-A5/GpH7-B3 variant G236_03V/GpL16-k0 (antibody, human IgG1, kappa)
heavy 1: not shown
heavy 2: not shown
light: DIVMTQSPLSLPVTPGEPASISCQASESLVHSNRNTYLHWYLQKPGQSPQLLIYKVSNRFSGVPDRFSGSGSGTDFTLKISRVEAEDVGVYYCSQNTHVPPTFGQGTKVEIERTVAAPSVFIFPPSDEQLKSGTASVVCLLNNFYPREAKVQWKVDNALQSGNSQESVTEQDSKDSTYSLSSTLTLSKADYEKHKVYACEVTHQGLSSPVTKSFNRGEC
notes: also called He Ab G236_03V
B5: GpH7-B3 variant T335_16H/GpL16-k0 (antibody, human IgG1, kappa)
heavy: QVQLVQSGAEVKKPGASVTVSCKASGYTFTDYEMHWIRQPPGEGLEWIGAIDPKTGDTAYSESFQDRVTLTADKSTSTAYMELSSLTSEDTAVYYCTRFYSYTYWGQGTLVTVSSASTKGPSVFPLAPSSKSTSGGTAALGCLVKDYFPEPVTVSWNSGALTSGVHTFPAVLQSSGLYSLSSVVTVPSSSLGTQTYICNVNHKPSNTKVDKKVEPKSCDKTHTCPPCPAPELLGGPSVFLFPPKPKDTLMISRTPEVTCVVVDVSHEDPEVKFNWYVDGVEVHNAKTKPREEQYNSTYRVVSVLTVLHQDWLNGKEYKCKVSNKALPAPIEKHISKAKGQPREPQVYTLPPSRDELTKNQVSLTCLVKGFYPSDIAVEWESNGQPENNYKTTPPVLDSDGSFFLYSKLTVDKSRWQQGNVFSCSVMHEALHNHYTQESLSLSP
light: DIVMTQSPLSLPVTPGEPASISCQASESLVHSNRNTYLHWYLQKPGQSPQLLIYKVSNRFSGVPDRFSGSGSGTDFTLKISRVEAEDVGVYYCSQNTHVPPTFGQGTKVEIERTVAAPSVFIFPPSDEQLKSGTASVVCLLNNFYPREAKVQWKVDNALQSGNSQESVTEQDSKDSTYSLSSTLTLSKADYEKHKVYACEVTHQGLSSPVTKSFNRGEC
notes: also called Ho Ab T335_16H
B6: GpH7-B3 variant T335_19Q/GpL16-k0 (antibody, human IgG1, kappa)
heavy: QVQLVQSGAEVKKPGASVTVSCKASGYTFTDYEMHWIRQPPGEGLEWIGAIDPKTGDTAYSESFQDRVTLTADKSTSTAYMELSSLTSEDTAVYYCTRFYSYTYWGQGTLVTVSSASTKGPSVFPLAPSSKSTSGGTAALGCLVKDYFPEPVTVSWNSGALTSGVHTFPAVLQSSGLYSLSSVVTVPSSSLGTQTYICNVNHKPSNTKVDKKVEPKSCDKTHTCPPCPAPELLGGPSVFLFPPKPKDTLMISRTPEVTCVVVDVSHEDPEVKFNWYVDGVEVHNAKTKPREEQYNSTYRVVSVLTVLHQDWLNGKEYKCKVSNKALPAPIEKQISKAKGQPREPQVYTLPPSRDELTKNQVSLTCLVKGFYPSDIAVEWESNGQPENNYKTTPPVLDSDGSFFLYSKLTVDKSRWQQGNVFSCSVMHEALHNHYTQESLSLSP
light: DIVMTQSPLSLPVTPGEPASISCQASESLVHSNRNTYLHWYLQKPGQSPQLLIYKVSNRFSGVPDRFSGSGSGTDFTLKISRVEAEDVGVYYCSQNTHVPPTFGQGTKVEIERTVAAPSVFIFPPSDEQLKSGTASVVCLLNNFYPREAKVQWKVDNALQSGNSQESVTEQDSKDSTYSLSSTLTLSKADYEKHKVYACEVTHQGLSSPVTKSFNRGEC
notes: also called Ho Ab T335_19Q
B7: GpH7-B3 variant T335_15Y/GpL16-k0 (antibody, human IgG1, kappa)
heavy: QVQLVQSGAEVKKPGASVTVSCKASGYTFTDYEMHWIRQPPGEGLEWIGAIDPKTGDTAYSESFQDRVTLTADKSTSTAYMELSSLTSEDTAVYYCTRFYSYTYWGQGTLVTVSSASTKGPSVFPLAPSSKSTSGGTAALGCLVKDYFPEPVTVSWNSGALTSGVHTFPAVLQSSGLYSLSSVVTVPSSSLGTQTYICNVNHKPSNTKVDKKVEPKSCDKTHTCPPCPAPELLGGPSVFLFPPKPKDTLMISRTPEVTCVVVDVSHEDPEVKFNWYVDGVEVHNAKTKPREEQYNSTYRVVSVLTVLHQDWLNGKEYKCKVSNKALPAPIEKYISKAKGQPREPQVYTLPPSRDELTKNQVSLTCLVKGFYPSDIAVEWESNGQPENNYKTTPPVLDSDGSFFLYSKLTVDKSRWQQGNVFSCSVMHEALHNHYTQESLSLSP
light: DIVMTQSPLSLPVTPGEPASISCQASESLVHSNRNTYLHWYLQKPGQSPQLLIYKVSNRFSGVPDRFSGSGSGTDFTLKISRVEAEDVGVYYCSQNTHVPPTFGQGTKVEIERTVAAPSVFIFPPSDEQLKSGTASVVCLLNNFYPREAKVQWKVDNALQSGNSQESVTEQDSKDSTYSLSSTLTLSKADYEKHKVYACEVTHQGLSSPVTKSFNRGEC
notes: also called Ho Ab T335_15Y
B8: GpH7-A5/GpH7-B3 variant A330_12R/GpL16-k0 (antibody, human IgG1, kappa)
heavy 1: not shown
heavy 2: not shown
light: DIVMTQSPLSLPVTPGEPASISCQASESLVHSNRNTYLHWYLQKPGQSPQLLIYKVSNRFSGVPDRFSGSGSGTDFTLKISRVEAEDVGVYYCSQNTHVPPTFGQGTKVEIERTVAAPSVFIFPPSDEQLKSGTASVVCLLNNFYPREAKVQWKVDNALQSGNSQESVTEQDSKDSTYSLSSTLTLSKADYEKHKVYACEVTHQGLSSPVTKSFNRGEC
notes: also called He Ab A330_12R

The assay has as its target T1, FcγRIIa H (human, UniProt P12318 34-217).
T1 construct: extracellular domain; also called FcgRIIa H type; 2aH; not shown: His tag at the C terminus
T1 sequence (looked up): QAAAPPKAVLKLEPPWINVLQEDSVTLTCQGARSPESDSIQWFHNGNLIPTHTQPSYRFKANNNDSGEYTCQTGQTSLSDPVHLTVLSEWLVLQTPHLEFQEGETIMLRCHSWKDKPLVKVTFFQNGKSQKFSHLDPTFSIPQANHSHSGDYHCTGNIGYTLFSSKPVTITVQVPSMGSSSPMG
Nature of the assay: SPR Biacore, relative binding. Background: SPR reads the build-up and loss of mass on a sensor chip optically.
For the molecule B1, the Ho/Con_2aH was 105 % of GpH7-B3/GpL16-k0 (=100). Regarding B2, the He/Con_2aH is 111 % of GpH7-A5/GpH7-B3/GpL16-k0 (=100). On to B3, for which the Ho/Con_2aH was 101 % of GpH7-B3/GpL16-k0 (=100).

On to B4, for which the He/Con_2aH was 119 % of GpH7-A5/GpH7-B3/GpL16-k0 (=100). B5: the Ho/Con_2aH was 100 % of GpH7-B3/GpL16-k0 (=100). On the same count and under the same terms, the figure for B6 is 103 % of GpH7-B3/GpL16-k0 (=100); for B7 it is 102 % of GpH7-B3/GpL16-k0 (=100). On to B8, for which the He/Con_2aH was 108 % of GpH7-A5/GpH7-B3/GpL16-k0 (=100).
